This note sets out measurements from the supplement of paper PMC10567573.

B1: TRIM63 (parent)
chain: ANPYWTSRGSSVSMSGGRFRCPTC
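Further: lentivirally expressed fusions sorted by FACS into six bins by GFP to DsRed ratio, PSI derived from sequencing read proportions per bin multiplied by bin number.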

In this series the parent is B1. Kind of series: protein stability index of a GFP-peptide fusion (GPS, HEK-293T) (PSI 1-6); higher = more stable. Particulars: c terminus: a fixed tail appended.
On to ANPYWTSRGSSVSMSGGQFRCPTC [R18Q], for which the protein stability index is 1.32.
Under ANPYWTSRGSSVSMSGGVFRCPTC [R18V] stands 1.08.
Turning to ANPYWTSVGSSVSMSGGRFRCPTC [R8V], the protein stability index worked out at 1.95.
Under ANPYWTSQGSSVSMSGGRFRCPTC [R8Q] stands 1.99; under ANPYWTSYGSSVSMSGGRFRCPTC [R8Y], 1.71.
The value for ANPYWTSSGSSVSMSGGRFRCPTC [R8S] was 1.65; that for ANPYWTSKGSSVSMSGGRFRCPTC [R8K] was 1.95; that for ANPYWTSAGSSVSMSGGRFRCPTC [R8A] was 1.85.
On to ANPYWTSIGSSVSMSGGRFRCPTC [R8I], for which the protein stability index was 1.4.
As to ANPYWTSGGSSVSMSGGRFRCPTC [R8G], the protein stability index came to 1.55.
Take ANPYWTSEGSSVSMSGGRFRCPTC [R8E]: the protein stability index came to 3.19.
For ANPYWTSFGSSVSMSGGRFRCPTC [R8F], the protein stability index stood at 1.27.
ANPYWTSCGSSVSMSGGRFRCPTC [R8C]: the protein stability index came out at 1.23.
With ANPYWTSMGSSVSMSGGRFRCPTC [R8M], the protein stability index is 1.39.
Under ANPYWTSHGSSVSMSGGRFRCPTC [R8H] stands 1.41; under ANPYWTERGSSVSMSGGRFRCPTC [S7E], 1.28.
ANPYWTMRGSSVSMSGGRFRCPTC [S7M]: the protein stability index came out at 2.53.
Take ANPYWTHRGSSVSMSGGRFRCPTC [S7H]: the protein stability index was 1.45.
With ANPYWTWRGSSVSMSGGRFRCPTC [S7W], the protein stability index is 2.62.
Under ANPYWTQRGSSVSMSGGRFRCPTC [S7Q] stands 2.29.
Turning to ANPYWTSRGSSVSMHGGRFRCPTC [S15H], the protein stability index was determined as 1.87.
ANPYWTSRGSSVSMQGGRFRCPTC [S15Q]: the protein stability index came to 2.58.
Take ANPYWTSRGSSVSMLGGRFRCPTC [S15L]: the protein stability index amounted to 2.03.
ANPYWTSRGSSVSMNGGRFRCPTC [S15N]: the protein stability index is 1.01.
Consider ANPYWTSRGSSVSMCGGRFRCPTC [S15C], for which the protein stability index worked out at 2.02.
In the case of ANPYWTSRGSSVSMDGGRFRCPTC [S15D], the protein stability index was found to be 2.3.
Take ANPYWTSRGSSVSMWGGRFRCPTC [S15W]: the protein stability index was 1.8.
As to ANPYWTSRGSSVSMSPGRFRCPTC [G16P], the protein stability index was found to be 2.08.
Turning to ANPYWTSRGSSVSMSTGRFRCPTC [G16T], the protein stability index stood at 1.96.
For ANPYWTSRGSSVSMSHGRFRCPTC [G16H], the protein stability index was 2.42.
ANPYWTSRGSSVSMSWGRFRCPTC [G16W]: the protein stability index came out at 1.8.
Under ANPYWTSRGSSVSMSCGRFRCPTC [G16C] stands 1.91; under ANPYWTSRGSSVSMSDGRFRCPTC [G16D], 2.23.
Under ANPYSTSRGSSVSMSGGRFRCPTC [W5S] stands 1.9.
Take ANPYGTSRGSSVSMSGGRFRCPTC [W5G]: the protein stability index was 2.45.
Regarding ANPYFTSRGSSVSMSGGRFRCPTC [W5F], the protein stability index was 1.41.
ANPYMTSRGSSVSMSGGRFRCPTC [W5M]: the protein stability index amounted to 2.16.
Regarding ANPYYTSRGSSVSMSGGRFRCPTC [W5Y], the protein stability index stood at 1.7.
Consider ANPYVTSRGSSVSMSGGRFRCPTC [W5V], for which the protein stability index was determined as 2.59.
The value for ANPYQTSRGSSVSMSGGRFRCPTC [W5Q] was 2.62; that for ANPYWTSRGSNVSMSGGRFRCPTC [S11N] was 2.32; that for ANPYWTSRGSFVSMSGGRFRCPTC [S11F] was 2.15.
Regarding ANPYWTSRGSIVSMSGGRFRCPTC [S11I], the protein stability index came to 3.32.
On to ANPYWTSRGSMVSMSGGRFRCPTC [S11M], for which the protein stability index was 1.63.
For the variant ANPYWTSRGSHVSMSGGRFRCPTC [S11H], the protein stability index worked out at 2.68.
Consider ANPYWTSRGSDVSMSGGRFRCPTC [S11D], for which the protein stability index was 2.08.
As for ANPYWTSRGSEVSMSGGRFRCPTC [S11E], the protein stability index turned out to be 1.76.
For ANPYWTSRGSTVSMSGGRFRCPTC [S11T], the protein stability index worked out at 2.18.
The value for ANPYWTSRGSSVSMSGGRFRCPNC [T23N] was 2.03; that for ANPYWTSRGSSVSMSGGRFRCPHC [T23H] was 2.28; that for ANPYWTSRGSSVSMSGGRFRCPGC [T23G] was 3.11.
ANPYWTSRGSSVSMSGGRFRCPVC [T23V]: the protein stability index worked out at 1.34.
For the variant ANPYWTSRGSSVSMSGGRFRCPLC [T23L], the protein stability index worked out at 2.58.
ANPYWTSRGSSVSMSGGRFRCPDC [T23D]: the protein stability index worked out at 1.71.
Under ANPYWTSRGSSVSMSGGRFRCPFC [T23F] stands 1.45; under ANPYWTSRGSSVSMSGGRFRCPQC [T23Q], 1.95; under ANPYWTSRGSSVSMSGGRFRCPEC [T23E], 1.69.
Consider ANPYWTSRGSSVSMSGGRFACPTC [R20A], for which the protein stability index turned out to be 2.38.
With ANPYWTSRGSSVSMSGGRFTCPTC [R20T], the protein stability index worked out at 1.78.
With ANPYWTSRGSSVSMSGGRFWCPTC [R20W], the protein stability index was determined as 2.43.
Under ANPYWTSRGSSVSMSGGRFICPTC [R20I] stands 1.91.
Regarding ANPYWTSRGSSVSMSGGRFSCPTC [R20S], the protein stability index is 2.32.
As for ANPYWTSRGSSVSMSGGRFFCPTC [R20F], the protein stability index amounted to 1.27.
The value for ANPYWTSRGSSVSMSGGRFGCPTC [R20G] was 1.82.
For ANPYWTSRGSSVSMSGGRFYCPTC [R20Y], the protein stability index came to 1.96.
Regarding ANPYWTSRGSSVSMSGGRFNCPTC [R20N], the protein stability index is 1.57.
Take ANPYWTSRGSSVSMSGGRFPCPTC [R20P]: the protein stability index stood at 2.4.
As for ANPYWTSRGSSVSMSGGRFVCPTC [R20V], the protein stability index came out at 2.13.
Turning to ANPYWTSRGSSVSMSGGRFKCPTC [R20K], the protein stability index turned out to be 2.61.
As to ANPYWTSRGSSVSMSGGRFCCPTC [R20C], the protein stability index came out at 2.12.
On to ANPYWTSRFSSVSMSGGRFRCPTC [G9F], for which the protein stability index came to 1.92.
Under ANPYWTSRMSSVSMSGGRFRCPTC [G9M] stands 1.39; under ANPYWTSRISSVSMSGGRFRCPTC [G9I], 1.39.
ANPYWTSRYSSVSMSGGRFRCPTC [G9Y]: the protein stability index turned out to be 2.32.
For ANPYWTSRRSSVSMSGGRFRCPTC [G9R], the protein stability index was found to be 2.15.
In the case of ANPYWTSRHSSVSMSGGRFRCPTC [G9H], the protein stability index was 1.31.
As to ANPYWTSRDSSVSMSGGRFRCPTC [G9D], the protein stability index stood at 1.94.
The value for ANPYWTSRVSSVSMSGGRFRCPTC [G9V] was 1.91; that for ANPYWTSRQSSVSMSGGRFRCPTC [G9Q] was 1.3.
The value for ANPYWTSRGLSVSMSGGRFRCPTC [S10L] was 1.46; that for ANPYWTSRGASVSMSGGRFRCPTC [S10A] was 1.68; that for ANPYWTSRGKSVSMSGGRFRCPTC [S10K] was 1.65.
Regarding ANPYWTSRGMSVSMSGGRFRCPTC [S10M], the protein stability index stood at 1.84.
Under ANPYWTSRGVSVSMSGGRFRCPTC [S10V] stands 1.72; under ANPYWTSRGCSVSMSGGRFRCPTC [S10C], 2.18; under ANPYWTSRGHSVSMSGGRFRCPTC [S10H], 2.44.
For the variant ANPYWTSRGWSVSMSGGRFRCPTC [S10W], the protein stability index was found to be 3.35.
Consider ANPYWTSRGYSVSMSGGRFRCPTC [S10Y], for which the protein stability index is 1.57.
Regarding ANPYWTSRGSSVSMSGGRFRCDTC [P22D], the protein stability index came out at 2.22.
Regarding ANPYWTSRGSSVSMSGGRFRCHTC [P22H], the protein stability index was found to be 2.39.
Regarding ANPYWTSRGSSVSMSGGRFRCKTC [P22K], the protein stability index was 1.98.
For the variant ANPYWTSRGSSVSMSGGRFRCRTC [P22R], the protein stability index worked out at 2.12.
On to ANPYWTSRGSSVSMSGGRFRCNTC [P22N], for which the protein stability index turned out to be 2.5.
Regarding ANPYWTSRGSSVSMSGGRFRCLTC [P22L], the protein stability index stood at 1.24.
